Target: CD1d(endogenous lipid)-β2M complex, as crystallized with VHH1D17 (Homo sapiens, UniProt P15813;P61769)

B1: VHH1D5 (VHH)
VHH: EVQLVESGGGLVQAGGSLRLSCAASGSSFSSYTMGWFRQAPGKEREIVAGIRWSDESPIYADSVKGRFTISRDNAKNTLYLQMNSLKPEDTAVYYCAARLVPPGIPIPRTSESMRYWGKGTLVTVSS
Q: Does B1 bind?
A: Result: binds

From article PMC10693867 (Journal for Immunotherapy of Cancer, 2023)
